Here are results for one molecule from publication doi:10.1101/2022.09.23.509211 (bioRxiv, 2022).

As usually defined, the Kd is the concentration at which binding is half-saturated.

A value given as a limit tells only on which side of the number the result lay.

The experiment deals with Rabbit skeletal muscle actin (actin filaments, F-actin) (rabbit, UniProt P68135 1-377). Briefly: co-sedimentation.

B1: Mouse metallothionein-3 (MT-3), recombinant, cleaved WT MT-3 (natural protein)
chain: not shown
B1 yielded a Kd of more than 20 µM.
